Assay results reported in patent US20250073202A1, “METHODS TO TREAT RENAL DISORDERS USING CALCIUM CHANNEL INHIBITORS” (The Trustees of Indiana University, priority 2018, published 2025).

B1: IL-17Rc: the IL17Rc receptor antagonist (R&D Systems), 150 ng/day i.p. (protein, UniProt Q8NAC3 21-538, looked up)
extracellular domain: LERLVGPQDATHCSPVSLEPWGDEERLRVQFLAQQSLSLAPVTAATARTALSGLSGADGRREERGRGKSWVCLSLGGSGNTEPQKKGLSCRLWDSDILCLPGDIVPAPGPVLAPTHLQTELVLRCQKETDCDLCLRVAVHLAVHGHWEEPEDEEKFGGAADSGVEEPRNASLQAQVVLSFQAYPTARCVLLEVQVPAALVQFGQSVGSVVYDCFEAALGSEVRIWSYTQPRYEKELNHTQQLPDCRGLEVWNSIPSCWALPWLNVSADGDNVHLVLNVSEEQHFGLSLYWNQVQGPPKPRWHKNLTGPQIITLNHTDLVPCLCIQVWPLEPDSVRTNICPFREDPRAHQNLWQAARLQLLTLQSWLLDAPCSLPAEAALCWRAPGGDPCQPLVPPLSWENVTVDKVLEFPLLKGHPNLCVQVNSSEKLQLQECLWADSLGPLKDDVLLLETRGPQDNRSLCALEPSGCTSLPSKASTRAARLGEYLLQDLQSGQCLQLWDDDLGALWACPMDKYIHKR
modifications: extracellular domain

How the values were obtained:
AKI-primed CD4+ cells [1] = test: In vitro stimulation of AKI-primed kidney CD4+ cells with Ang II and elevated Na+, IL17 response; type: cell-based, rat; conditions: inhibitor 10 μM; Ang II 10^-7 M and 170 mM Na+; 12-14 hours; cells 7 days post I/R
Experimental: Total RNA was obtained from kidney using Trizol and the Zymogen RNA extraction kit and cDNA was prepared using MMLV enzyme (Invitrogen, Carlsburg, CA). Quantitative real time PCR (qPCR) using gene specific primers was performed using ABI 7500 (Applied Biosystems, Foster City, CA). mRNA values were calculated using 2^−ΔΔCt. Specific primers sequences for IL-6 (catalog #Rn01410330_m1), Kim-1 (#Rn00597703_m1) and IL17 (Rn01757168_m1) were purchased from ThermoFisher (Waltham, MA).
(§1) To evaluate protein expression of IL17 or Orai1, Orai2 or Orai3, cells were restimulated with PMA and ionomycin for 6 hours in the presence of monensin (Golgistop, 1 μg·ml, BD Biosciences) permeabilized with saponin ([…]) and stained with relevant antibody. Cells were scanned using flow cytometry (FACSCalibur, BD Biosciences, San Jose, CA) and scans were analyzed using Flowjo software (Tree Star, Ashland, OR).
CD4+T cells were isolated using the MACS Pan-T cell microbead separation kit (Miltenyl, Glabach, Germany). T cells were stimulated with plate bound anti-CD3 (precoated with 2 μg/mL) and soluble anti-CD28 (1 μg/mL). Cells (2.5×10^5 in 0.25 ml) were incubated 12-14 hours at 37° C. in RPMI medium supplemented with 10% FBS (Invitrogen) in a 48-well plate. Cells were challenged with Ang II (Sigma, 10^−7M) and raising the extracellular Na+ from 140 mM to 170 mM, using a 1 M NaCl solution. Calcium channel inhibitors 2ABP (10 μM, Sigma) AnCoA4 (10 μM, Millipore, Burlington, MA) and YM58483/BTP2 (10 μM) were included to evaluate effects on IL-17.

AKI-primed CD4+ cells [2] = test: Fura-2 imaging of intracellular Ca2+ responses in AKI-primed CD4+ cells; type: cell-based, rat; conditions: superfusate with Ang II and elevated Na+; to levels similar to sham
Experimental: To assess Ca^2+ responses, fura2 imaging was performed. Briefly, isolated CD4+ T cells were loaded with fura-2AM (2.5 μM, Sigma, St. Louis, MO) for 45 min, washed, placed on poly-lysine (Sigma) coated coverslips and placed in a superfusion chamber with physiological salt solution (PSS) containing 2 mM Ca^2+. The chamber was mounted on an inverted epifluorescence microscope and signal measured with alternating excitation at 340 and 380 nm and emission at 510 nm using the InCa^2+-imaging system (Intracellular Imaging Systems, Cincinnati, OH). Data were acquired at 1.5 Hz and representative tracings were smoothed to the 10 nearest neighbor points using GraphPad Prism. For analysis, an increase in signal intensity of >1 standard deviation from baseline was considered a positive response. Frequency of responding cells was determined from an average 53±19 cells for each animal.

human blood CD4+ cells = test: In vitro stimulation of human blood CD4+ cells from AKI patients with elevated sodium, IL17 response; type: cell-based; conditions: 170 mM Na+, overnight (~12 hours)
Experimental: For in vitro stimulation of human blood cells, primary T cells were isolated from fresh blood using Straight whole blood CD4 kit from Miltneyli Biotech (Miltenyli, San Diego, CA) according to manufactures' protocol. CD4+T cells were plated at a density of 1×10^6 cells/mL in RPMI medium supplemented with FBS. Cells were stimulated with human anti-CD3/CD28 dynabeads (Gibco; Catalogue no 11161D) along with labeled treatment overnight (˜12 hours). T cells were harvested and incubated with monensin for 6 hours, prior to staining for IL-17 (Table 4).

[3] = tested on: renal ischemia reperfusion injury; test: Bilateral renal ischemia/reperfusion (I/R) injury in rats, 24 hours after reperfusion (Study II); type: in vivo, rat
Experimental: All studies used male Sprague-Dawley rats (250-300 g) that were purchased from Envigo (Indianapolis, IN). Rats were anesthetized with a cocktail of ketamine (100 mg·kg^−1, KetoVed, Vedco Inc, St. Joseph, MO) and xylazine (50 mg·kg^−1, AnaSed, Lloyd Inc, Shenandoah IA). Rats were placed on a heated surgical table to maintain body temperature. A midline incision and either unilateral (left) or bilateral renal ischemia (as indicated in Results) was induced by applying micro-aneurism clamps on the renal pedicles for a period of 40 min. Re-establishment of perfusion was verified by visual examination following removal of the clamps. Rats were provided post-operative analgesia using buprenorphine-SR (1 mg·kg^−1).
Rats were allowed to recover for various periods of time as described in the Results. In Study I, lymphocytes were studied in vitro after recovery for either 2 or 7 days following I/R or sham surgery for evaluation of function in vitro or for FACS analysis. In Study II, the effect of SOCE on kidney injury was studied with the inhibitor YM58483/BPT2 (N-[4-[3,5-Bis(trifluoromethyl)-1H-pyrazol-1-yl]phenyl]-4-methyl-1,2,3-thiadiazole-5-carboxamide; Tocris/Bio-Techne Minneapolis, MN). Rats were pretreated p.o. 2-3 hours prior to surgery with YM58483.BPT2 (1 mg·kg^−1) in sugar-free chocolate pudding following dilution in 100% EtOH, at, a dose previously shown to affect T cell activation in rats. In some experiments, rats were also treated with the IL17Rc (150 ng/day i.p; R&D Systems). In addition, one experiment utilized a model of rhabdomyolysis, induced by injection of 50% glycerol (10 ml/kg) into the hindlimb muscle of rats following 16 hours of water restriction.
To measure creatinine, tail blood was collected in heparin containing tubes and centrifuged to collect plasma. Plasma creatinine was measured using a Pointe Scientific Analyzer and Creatinine Assay reagents using methods outlined by the manufacturer (Pointe Scientific, Canton MI). Urine was collected for 24 hours by placing rats in metabolic cages and urine volume was determined gravimetrically. Urine creatinine was measured using a colorimetric assay adopted for microplate readers. Creatinine clearance was measured using UCr*V/PCr. […]
Freshly harvested kidneys were minced and digested in liberase (2 μg/ml. Roche, Indianapolis IN) for 15 min at 37° C. using Gentle MACs (Miltenyli, San Diego, CA). The digested tissue was filtered through a 100-μm mesh and washed with RPMI containing 10% fetal bovine serum (Invitrogen). Mononuclear cells were isolated using Percol (Sigma) density gradient centrifugation.
as §1
The effect of SOCE on early ischemic kidney injury was studied with the inhibitor YM58483/BPT2 (N-[4-[3,5-Bis(trifluoromethyl)-1 H-pyrazol-1-yl]phenyl]-4-methyl-1,2,3-thiadiazole-5-carboxamide; Tocris/Bio-Techne Minneapolis, MN). Rats were pretreated 2-3 hours prior to surgery, p.o. in sugar-free chocolate pudding following dilution in 100% EtOH, at 1 mg·kg^−1, a dose previously shown affect T cell activation in rats. To evaluate if SOCE influences Th17 cells in AKI, rats were fed YM58483/BPT2 approximately 2 hours prior to […] and reperfusion. […] YM58483/2BPT2 also attenuated the infiltration of total CD4+ and CD8+ T-cells, B-cells, and dendritic cells following I/R (FIGS. 3C, 3D, 3E, and 3F).

[4] = 24 hours following ischemia reperfusion, mean ± S.E.

Row | Molecule | increase in IL17+ cells (IL17 protein, FACS) (AKI-primed CD4+ cells [1]) | increase of IL17 mRNA (AKI-primed CD4+ cells [1]) | percentage of Ca2+-responding cells (AKI-primed CD4+ cells [2]) | IL17 response to elevated extracellular sodium (human blood CD4+ cells) | infiltration of total CD4+ T-cells in kidney (vs vehicle) ([3]; 24 hours following I/R) | kidney CD4+/IL17+ cells (vs vehicle) ([3]; 24 hours following I/R) | CD4+ renal lymphocyte content [3, 4] [cells/gram] | CD4+/IL-17+ cells [3, 4] [cells/gram] | CD8+ cells renal lymphocyte content [3, 4] [cells/gram] | CD8+IL-17+ cells [3, 4] [cells/gram] | Serum Creatinine [3, 4] [mg/dL] | Total IL-17+ cells [3, 4] [cells/gram]
1 | NCCOB(c1ccccc1)c1ccccc1 [2-ABP, 2-aminoethoxydiphenyl borate] | completely blocked | completely blocked | – | – | – | – | – | – | – | – | – | –
2 | COc1cc2c(cc1-c1coc3c4c(ccc3c1=O)OC(C)(C)C=C4)OCO2 [AnCoA4] | completely blocked | completely blocked | significantly attenuated | inhibited | – | – | – | – | – | – | – | –
3 | B1 | – | – | – | – | significantly reduced | significantly reduced | 19229 ± 3175 | 1567 ± 294 | 4356 ± 559 | 251 ± 118 | 3.96 ± 1.2 | 8447 ± 1753
